Reference: IntAct's records for PubMed 20485264
Blank lines part the entries; values can stand above or below the substance they belong to.

Assays:
ipka_human PKIA [1] = molecular target: ipka_human PKIA (UniProt P61925)
ipka_human PKIA [2] = molecular target: ipka_human PKIA (UniProt P61925); remark: listed apart in the source
ipka_human PKIA [3] = molecular target: ipka_human PKIA (UniProt P61925); remark: listed apart in the source
ipka_human PKIA [4] = molecular target: ipka_human PKIA (UniProt P61925); remark: listed apart in the source
xpo1_yeast CRM1 = xpo1_yeast CRM1 (UniProt P30822)

effect of a mutation on the interaction (ipka_human PKIA [1]): increasing interaction
Substance: Exportin-1 (Saccharomyces cerevisiae) (from UniProt P30822) P754D

effect of a mutation on the interaction (ipka_human PKIA [2]): increasing interaction
Substance: Exportin-1 (Saccharomyces cerevisiae) (from UniProt P30822) V441A;L442A

effect of a mutation on the interaction (ipka_human PKIA [3]): increasing interaction
Substance: Exportin-1 (Saccharomyces cerevisiae) (from UniProt P30822) V441D

effect of a mutation on the interaction (ipka_human PKIA [4]): increasing interaction
Substance: Exportin-1 (Saccharomyces cerevisiae) (from UniProt P30822) V443D

effect of a mutation on the interaction (xpo1_yeast CRM1): disrupting interaction
Substance: cAMP-dependent protein kinase inhibitor alpha (Homo sapiens) (from UniProt P61925) I47A
